Values quoted from earlier work in paper doi:10.1101/2024.02.22.581550.

Target: Cys145 (UniProt position 145, PILIPCHRVVC)

Substance: O6-alkylguanine-DNA alkyltransferase (hAGT; MGMT, methylated-DNA--protein-cysteine methyltransferase) (Homo sapiens)
- pKa: ∼5
